Source: the supplement of paper PMC10567573

B1: RPAIN (parent)
chain: ISEYEKSLQFDEKCLSIMLAEWEA
B2: GALNT9 (parent)
chain: FTQSGPIVSRATGRCLEVEMSKDA

Variants of: B1
Experiment: protein stability index of a GFP-peptide fusion (GPS, HEK-293T) (PSI 1-6); higher = more stable
Details: c terminus: a fixed tail appended
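Further: lentivirally expressed fusions sorted by FACS into six bins by GFP to DsRed ratio, PSI derived from sequencing read proportions per bin multiplied by bin number.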

Protein stability index, by site and new letter:
L8: G 3.44; P 2.97; W 2.9; I 2.79; K 2.47; C 1.96; M 2.29; A 2.63
L19: C 2.79; G 3.04; K 3.58; E 4.02
F10: G 2.81; L 2.07; W 2.88
I1: W 1.26; V 2.15; T 3.12; D 2.6; S 1.8; H 2.15; L 1.64; N 1.69; F 1.34; Y 1.48; M 2.42
E12: G 2.27; V 1.26; S 1.92; D 2.17; H 2.02; F 1.99; T 1.67; K 1.75; W 1.85
K6: N 1.91; S 1.34; L 1.2; C 2.67
A24: G 2.11; I 1.96; E 1.87; K 2.27; M 3.31; N 2.32
E3: N 3.69; D 1.81; I 1.74; M 1.82; P 1.42; G 1.41; V 2.93
Q9: A 1.76; P 1.95; M 2.03; I 1.96; E 1.78; V 1.25
M18: G 3.33; S 2.56; K 2.19; A 1.86; F 2.5; P 4.27; T 2.79; H 2.41; I 1.4; Y 2.39; W 2.52; C 1.81
E23: L 1.83; H 2.59; V 3.22; W 2.83; C 1.87; T 1.76; R 1.85; N 2.14
I17: F 1.8; K 2.08; Y 1.2; A 1.6; Q 2; P 3.53; E 2.16
Y4: D 2.12; F 1.86; P 1.41; Q 1.8; W 1.92; E 2.13
S16: D 2.08; R 2.62; Y 2.83; L 2.1; C 1.91; F 2.09; E 1.96; Q 2.11
E5: S 1.82; P 2.33; I 1.75; D 1.55
E21: W 2.81; G 1.37; K 1.47; N 2.38; R 3.58
S2: F 1.7; I 1.79
W22: Y 1.69
A20: Q 2.19; K 1.64; G 2.01; R 1.25
L15: D 4.09; P 4.02; K 4.06; Q 3.73; S 3.92; F 2.21; M 2.2; T 3.73
S7: P 1.47; C 2.46; W 2; H 2.7; K 1.38; E 1.48; L 1.44
D11: A 2.17; T 1.87; P 1.99; N 2.45; G 2.15; R 1.77
C14: L 1.44; N 1.96; R 2.32; V 1.75; H 2.81; M 1.58; D 2.16
K13: T 1.44; V 1.7; N 1.19; H 1.73

Variants of: B2
Experiment: as above
Details: c terminus: a fixed tail appended

Protein stability index of substitutions, site by site:
A24: L 2.35; H 2.43; C 2.34; I 1.89; T 2.3; P 3.19; N 2.78; M 1.51; D 2.51; V 1.68; R 2.2; Y 1.75; F 1.34; E 2.64
D23: P 1.92; Q 1.95; V 2.02; Y 2.52; S 2.67; T 1.84
